Among the data in patent US7723111 are IFN-γ secretion (pg/ml) of MOv-γ transduced mouse T cells in response to 24JK-FBP cells (parental 24JK: 0; non-transduced T cells: 0), IFN-γ secretion (pg/ml) of MOv-γ transduced mouse T cells in response to IGROV (ovarian FBP +) cells (non-transduced T cells: 0) and share of MOv-γ transduced human T cell clones (patient 410) reactive against the ovarian cancer target values, retold here.

In this assay the target is folate binding protein (FBP) (UniProt P15328). Kind of assay: cell-based or functional assay.
Sequence of UniProt P15328 (P15328 25-234 limits assumed): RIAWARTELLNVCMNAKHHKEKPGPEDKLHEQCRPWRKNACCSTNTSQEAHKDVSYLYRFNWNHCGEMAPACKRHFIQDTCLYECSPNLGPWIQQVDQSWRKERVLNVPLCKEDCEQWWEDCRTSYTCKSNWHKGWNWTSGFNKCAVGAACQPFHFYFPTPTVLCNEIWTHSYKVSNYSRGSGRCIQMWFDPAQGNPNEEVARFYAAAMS

Consider MOv-γ chimeric receptor, for which the IFN-γ secretion (pg/ml) of MOv-γ transduced mouse T cells in response to 24JK-FBP cells (parental 24JK: 0; non-transduced T cells: 0) amounted to 5200 pg/mL, the IFN-γ secretion (pg/ml) of MOv-γ transduced mouse T cells in response to IGROV (ovarian FBP +) cells (non-transduced T cells: 0) was 37500 pg/mL and the share of MOv-γ transduced human T cell clones (patient 410) reactive against the ovarian cancer target is 67 % of clones.
